Experimental data taken from patent publication US20210347873A1 (SHANGHAI PHARMAEXPLORER, published 2021).

What was measured:
[1] = target: biotinylated hBLyS-ECD (human) (UniProt Q9Y275); assay: blocking ELISA: biotinylated hBLyS-ECD on coated BAFF R, antibody 0.00128 nM
Target sequence in this assay (Q9Y275 134-285): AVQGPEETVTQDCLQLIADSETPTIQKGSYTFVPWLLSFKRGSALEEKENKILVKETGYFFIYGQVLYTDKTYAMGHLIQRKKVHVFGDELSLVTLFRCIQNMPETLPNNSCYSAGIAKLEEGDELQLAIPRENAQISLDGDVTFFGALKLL

[2] = target: cynomolgus BLyS (full length, arginine to histidine at position 132) on CHO-K1 cells (cynomolgus); assay: flow cytometry, CHO-K1 cynoBLyS cells, antibody 0.0213 nM
[3] = target: biotinylated hBLyS-ECD (human) (UniProt Q9Y275); assay: blocking ELISA: biotinylated hBLyS-ECD on coated BAFF R, antibody 0.8 nM
Target sequence in this assay (Q9Y275 134-285): as above

[4] = target: human BLyS (full length, arginine to histidine at position 132) on CHO-K1 cells (human) (UniProt Q9Y275); assay: flow cytometry, CHO-K1 hBLyS cells, antibody 0.534 nM
[5] = target: human BLyS (full length, arginine to histidine at position 132) on CHO-K1 cells (human) (UniProt Q9Y275); assay: flow cytometry, CHO-K1 hBLyS cells, antibody 0.00427 nM
[6] = target: cynomolgus BLyS (full length, arginine to histidine at position 132) on CHO-K1 cells (cynomolgus); assay: flow cytometry, CHO-K1 cynoBLyS cells, antibody 0.00427 nM
[7] = target: biotinylated hBLyS-ECD (human) (UniProt Q9Y275); assay: ELISA, biotinylated hBLyS-ECD captured on streptavidin; antibody 2.67 nM
biotinylated hBLyS-ECD [8] = target: T1, biotinylated hBLyS-ECD (human, UniProt Q9Y275 134-285, biotinylated with Biotin-X-X-NHS (molar ratio 7:1); sites not stated); assay: BAFF R-coated ELISA, biotinylated hBLyS-ECD bound in presence of antibody 20 nM
T1 construct: also called biotinylated immunogen; biotinylated hBLvS-ECD
T1 sequence (Q9Y275 134-285): as above

biotinylated hBLyS-ECD [9] = target: T1, biotinylated hBLyS-ECD; assay: BAFF R-coated ELISA, biotinylated hBLyS-ECD bound in presence of antibody 0.0064 nM
biotinylated hBLyS-ECD [10] = target: T1, biotinylated hBLyS-ECD; assay: ELISA on captured biotinylated hBLyS-ECD; antibody 0.00427 nM
biotinylated hBLyS-ECD [11] = target: T2, biotinylated hBLyS-ECD (human, UniProt Q9Y275 134-285, biotinylated with Biotin-X-X-NHS (molar ratio 7:1), sites not stated); assay: ELISA, biotinylated hBLyS-ECD captured on streptavidin; antibody 0.107 nM
T2 construct: The hBLyS-ECD of Embodiment 1 after biotinylation (Embodiment 2); also called biotinylated immunogen; BLyS protein; not shown: His tag of the pCPC vector
Description: (§1) Streptavidin was first diluted to a final concentration of 1.0 μg/mL with PBS, and then 50 μL of diluted streptavidin per well was aliquoted into 96-well ELISA plate, which was subsequently sealed with plastic film and incubated at 4° C. overnight. On the next day the plate was washed four times with the plate washing buffer [PBS buffer containing 0.05% (v/v) Tween20] and added with the blocking solution [PBS buffer containing 0.05% (v/v) Tween20 and 1% (w/w) BSA] and blocked for 2 hours at 37° C. The blocking solution was removed, the biotinylated hBLyS-ECD prepared in Embodiment 2 was diluted with PBS to a final concentration of 50 ng/mL and then aliquoted into the 96-well ELISA plate at 50 μL per well and incubated for 1 hour at 37° C. After rinsing the plate four times with the plate washing buffer [PBS buffer containing 0.05% (v/v) Tween20], 100 μl of the purified lead antibody harvested in Embodiment 1 and 2 was pipetted into each well. After incubation for 1 hour at 37° C., the plate was rinsed four times with the plate washing buffer [PBS buffer containing 0.05% (v/v) Tween20]. HRP-labeled (horseradish peroxidase) secondary antibody (purchased from Sigma) was added in and incubated at 37° C. for 1 hour. The plate was then rinsed four times with the plate washing buffer [PBS buffer containing 0.05% (v/v) Tween20]. 100 μL of TMB substrate was aliquoted into each well and after incubation for 5 minutes at room temperature, 100 μL of stop solution (1.0 N HCl) was aliquoted into each well. A₄₅₀ₙₘ values were read via an ELISA plate reader (SpectraMax M5e purchased from Molecular Devices) and the results were shown in FIGS. 5A-5B and Table 10.

biotinylated hBLyS-ECD [12] = target: T2, biotinylated hBLyS-ECD; assay: ELISA, biotinylated hBLyS-ECD captured on streptavidin; antibody 13.3 nM
Description: as §1

biotinylated hBLyS-ECD [13] = target: T3, biotinylated hBLyS-ECD (human, UniProt Q9Y275 134-285, biotinylated with Biotin-X-X-NHS (molar ratio 7:1); sites not stated); assay: competitive ELISA on biotinylated hBLyS-ECD; competitor 2-1G11
T3 construct: also called biotinylated immunogen; BLyS protein
Description: The purified human BLyS antibody and hybridoma antibody were subjected to competitive enzyme-linked immunosorbent assay and the epitopes binding by different antibodies were analyzed.
Purified BLyS antibody was first diluted to a final concentration of 1.0 μg/mL with PBS, then aliquoted into a 96-well ELISA plate at 50 μL per well, and the plate was subsequently sealed with plastic film and incubated at 4° C. overnight. On the next day the plate was rinsed four times with the plate washing buffer [PBS buffer containing 0.05% (v/v) Tween20] and mixed with blocking solution [PBS buffer containing 0.05% (v/v) Tween20 and 1% (w/w) BSA], and then blocked at 37° C. for 1 hour. The blocking solution was removed, and the competitive antibody and IgG control were diluted to a final concentration of 40 μg/mL with PBS and then aliquoted into the 96-well ELISA plate at 50 μL per well. The biotinylated hBLyS-ECD was then diluted with PBS to a final concentration of 2 ng/mL and pipetted into the 96-well ELISA plate at 50 μL per well. The final concentration of competitive antibody and hBLyS-ECD was 20 μg/mL and 1 ng/mL, respectively. After incubation at 37° C. for 1 hour, the plate was rinsed four times with the plate washing buffer [PBS buffer containing 0.05% (v/v) Tween20]. 100 μL per well of HRP-labeled (horseradish peroxidase) streptavidin (purchased from Sigma) was added into the plate and the plate was incubated at 37° C. for 1 hour. The plate was then washed four times with the plate washing buffer [PBS buffer containing 0.05% (v/v) Tween20]. 100 μL of TMB substrate was aliquoted into each well and after incubation at room temperature for 5 minutes, 100 μL of stop solution (1.0 N HCl) was aliquoted into each well. A₄₅₀ₙₘ values were read by an ELISA plate reader (SpectraMax M5e, purchased from Molecular Device) and the results were shown in Tables 18A-18B. […] The data shown in the table is the inhibitory rate (%) of the binding level of the original antibody to hBLyS-ECD after addition of the competitive antibody.
T3 sequence (Q9Y275 134-285): as above

Sequence of human BLyS (full length, arginine to histidine at position 132) on CHO-K1 cells (human) (Q9Y275 whole entry R130H): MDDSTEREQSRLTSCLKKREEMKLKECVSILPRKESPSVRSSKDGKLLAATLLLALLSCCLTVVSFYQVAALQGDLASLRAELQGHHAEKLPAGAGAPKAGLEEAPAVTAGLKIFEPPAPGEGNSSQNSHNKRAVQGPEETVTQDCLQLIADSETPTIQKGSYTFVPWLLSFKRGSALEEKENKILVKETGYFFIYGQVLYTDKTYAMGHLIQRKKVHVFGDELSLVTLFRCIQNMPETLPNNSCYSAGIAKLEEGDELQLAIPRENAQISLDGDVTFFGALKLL
Sequence of cynomolgus BLyS (full length, arginine to histidine at position 132) on CHO-K1 cells (cynomolgus) (Q9Y275 other isoform, or with tags, fused parts or gaps limits assumed): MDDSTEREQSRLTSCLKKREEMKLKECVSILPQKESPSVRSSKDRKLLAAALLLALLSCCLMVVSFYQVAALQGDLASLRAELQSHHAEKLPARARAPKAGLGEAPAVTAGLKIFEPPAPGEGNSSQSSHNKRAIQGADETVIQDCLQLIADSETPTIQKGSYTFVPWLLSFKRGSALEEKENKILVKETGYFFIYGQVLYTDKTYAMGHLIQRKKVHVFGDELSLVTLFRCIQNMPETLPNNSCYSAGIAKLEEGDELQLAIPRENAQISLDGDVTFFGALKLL
T2 sequence (Q9Y275 134-285): as the sequence (Q9Y275 134-285) above

## hIgG Control (antibody)
[1]
  OD450 nm: 1.13 OD450 nm
[2]
  MFI: 22.4 MFI
[3]
  OD450 nm: 1.14 OD450 nm
[4]
  MFI: 33.4 MFI
[5]
  MFI: 32.3 MFI
[6]
  MFI: 22 MFI
[7]
  OD450 nm: 0.0956

## mIgG Control (antibody)
[1]
  OD450 nm: 1.42 OD450 nm
[2]
  MFI: 19.8 MFI
[3]
  OD450 nm: 1.4 OD450 nm
[4]
  MFI: 30.7 MFI
[5]
  MFI: 30.9 MFI
[6]
  MFI: 20.4 MFI
[7]
  OD450 nm: 0.0659

B1: c8E7D9C7F5 (antibody, V domains shown)
VH: QVQLQQSGVELARPGASVKLSCKASGYTFTSYGISWVKQRTGQALEWIGEIYPRSGNTYYNEKFKGKATLTADKSSSTAYMELRSLTSEDSAVYFCARSGPITTLVATDYGMDYWGQGTSVTVSS
VL: DIVLTQSPASLAVSLGQRATISCRASKSVSTSSYSYMHWYQQKPGQPPKLLIKFASNLESGVPARFSGSGSGTDFTLNIHPVEEEDAATYYCQHSREFPYTFGGGTKLEIK
notes: also called chimeric antibody c8E7D9C7F5
Biotinylated hBLyS-ECD [8]
  OD450 nm: 0.66 OD450 nm
Biotinylated hBLyS-ECD [9]
  OD450 nm: 2.01 OD450 nm
Biotinylated hBLyS-ECD [10]
  OD450 nm: 0.198 OD450 nm

B2: c97A3C2H4 (antibody, V domains shown)
VH: EVKLVESGGGLVQPGGSLKLSCAASGFTFSTYTMSWVRQTPEKRLEWVAYISYGGGSTSYPDTVKGRFTISRDNAKNTLYLQMSSLKSEDTAIYYCTRHVTVVENSMDYWGQGTSVTVSS
VL: DILLTQSPDILSVSPGERVSFSCRASQSIGTSIHWYQQRTNGSPRLLIKYVSESFSGTPSRFSGSGSGTAFTLTINSVESEDIADYYCQQTHSWPWTFGGGTKLEIK
notes: also called chimeric antibody c97A3C2H4
Biotinylated hBLyS-ECD [8]
  OD450 nm: 0.717 OD450 nm
Biotinylated hBLyS-ECD [9]
  OD450 nm: 1.96 OD450 nm
Biotinylated hBLyS-ECD [10]
  OD450 nm: 0.194 OD450 nm

B3: 97A3C2H4 (antibody, V domains shown)
VH: EVKLVESGGGLVQPGGSLKLSCAASGFTFSTYTMSWVRQTPEKRLEWVAYISYGGGSTSYPDTVKGRFTISRDNAKNTLYLQMSSLKSEDTAIYYCTRHVTVVENSMDYWGQGTSVTVSS
VL: DILLTQSPDILSVSPGERVSFSCRASQSIGTSIHWYQQRTNGSPRLLIKYVSESFSGTPSRFSGSGSGTAFTLTINSVESEDIADYYCQQTHSWPWTFGGGTKLEIK
notes: Mouse hybridoma antibody purified on Protein G
Biotinylated hBLyS-ECD [11]
  OD450 nm: 0.899
Biotinylated hBLyS-ECD [12]
  OD450 nm: 2.82

B4: L1D12 (antibody, V domains shown)
VH: QVQLVQSGGGLVQPGGSLRLSCAASGFTVSSNYMSWVRQAPGKGLEWVSVIYSGGSTYYADSVKGRFTISRDNSKNTLYLQMNSLRAEDTAVYYCARGFHDILTGYGMDVWGQGTTVTVSS
VL: SSELTQDPAVSVALGQTVRITCQGDSLRNYYAGWYQQKPGQAPVLVIYGKNNRPSGIPDRFSGSSSGNTASLTITGTQAEDEADYYCSSRDNSGTHLVEFGGGTKLTVL
notes: From a human naive scFv phage library; also called human BLyS antibody L1D12; LID12
Biotinylated hBLyS-ECD [13]
  inhibitory rate (%): 94%

B5: L1D12 (antibody, human IgG1, V domains shown)
VH: QVQLVQSGGGLVQPGGSLRLSCAASGFTVSSNYMSWVRQAPGKGLEWVSVIYSGGSTYYADSVKGRFTISRDNSKNTLYLQMNSLRAEDTAVYYCARGFHDILTGYGMDVWGQGTTVTVSS
VL: SSELTQDPAVSVALGQTVRITCQGDSLRNYYAGWYQQKPGQAPVLVIYGKNNRPSGIPDRFSGSSSGNTASLTITGTQAEDEADYYCSSRDNSGTHLVEFGGGTKLTVL
notes: also called LID12
Biotinylated hBLyS-ECD [11]
  OD450 nm: 0.678
Biotinylated hBLyS-ECD [12]
  OD450 nm: 1.61

B6: 2-1G11 (antibody, V domains shown)
VH: EVQLVESRGGVVQPGRSLRLSCAASGFTFSSYGMHWVRQAPGKGLEWVAVISYDGSNKYYADSVKGRFTISRDNSKNTLYLQMNSLRAEDAAVYYCARDRVDILTGYSIYGMDVWGQGTTVTVSS
VL: EIVMTQSPATLSLSPGERATLSCRASQSVSSYLAWYQQKPGQAPRLLIYDASKRATGIPARFSGSGSGTDFTLTISSLEPEDFAVYYCQQRSNWPLTFGGGTKVEIK
notes: From a human naive scFv phage library; also called human BLyS antibody 2-1G11
Biotinylated hBLyS-ECD [13]
  inhibitory rate (%): 82%

B7: L9G7 (antibody, human IgG1, V domains shown)
VH: QIQLVQSGAEVKKPGASVKVSCKASGYTFTSYGISWVRQAPGQGLEWMGWISAYNGNTNYAQKLQGRVTMTTDTSTSTAYMELRSLRSDDTAVYYCARTYYDILTGYYYYGMDVWGQGTTVTVSS
VL: EIVLTQSPGTLSLSPGERATLSCRTSQSVDTYLAWYQQKPGQAPRLLIYDASNRATGIPARFSGSGSGTDFTLTISSLEPEDFAVYYCQQRSNWPLTFGGGTKVEIK
Biotinylated hBLyS-ECD [11]
  OD450 nm: 0.528
Biotinylated hBLyS-ECD [12]
  OD450 nm: 1.6

B8: L9G7 (antibody, V domains shown)
VH: QIQLVQSGAEVKKPGASVKVSCKASGYTFTSYGISWVRQAPGQGLEWMGWISAYNGNTNYAQKLQGRVTMTTDTSTSTAYMELRSLRSDDTAVYYCARTYYDILTGYYYYGMDVWGQGTTVTVSS
VL: EIVLTQSPGTLSLSPGERATLSCRTSQSVDTYLAWYQQKPGQAPRLLIYDASNRATGIPARFSGSGSGTDFTLTISSLEPEDFAVYYCQQRSNWPLTFGGGTKVEIK
notes: From a human naive scFv phage library; also called human BLyS antibody L9G7
Biotinylated hBLyS-ECD [13]
  inhibitory rate (%): 96%

B9: 111D10D6G3 (antibody, V domains shown)
VH: QVQLQQPGAELVKPGASVKMSCKASGYTFTRHWITWVKQRPGQGLEWIGDIFPGSGSINYNEKFKSEATLTVEKSSSTAYMQLSSLTSEDSAVYYCARGDVDVWGTGTTVTVSS
VL: DIQMTQSPSSLSASLGERVSLTCRASQEIRGYLSWLQQKPNGTIKRLIYAASTLDSGVPKRFSATRSGSDFSLTISSLESEDFADYYCLQYASYPFTFGSGTKLEIK
notes: as for B3
Biotinylated hBLyS-ECD [11]
  OD450 nm: 0.613
Biotinylated hBLyS-ECD [12]
  OD450 nm: 1.78
